# Assay results from US20160017295A1.
# Legend:
# Experiment in all cases: cell-based or functional assay
# [1] = molecular target: SM 100-10 variant AAV capsid (Adeno-associated virus 2 (isolate Srivastava/1982) (AAV-2)) (UniProt P03135)
# [2] = molecular target: SM 100-3 variant AAV capsid (Adeno-associated virus 2 (isolate Srivastava/1982) (AAV-2)) (UniProt P03135)
# [3] = molecular target: variant γ4.3 (AAV2 capsid with N312K, N449D, N551S, I698V) (AAV2 (adeno-associated virus type 2)) (UniProt P03135)
# [4] = molecular target: wild-type AAV1 capsid (recombinant AAV-GFP vector) (AAV1 (adeno-associated virus type 1))
# [5] = molecular target: Variant 1.45 (AAV2 capsid with N312K, N449D) (AAV2 (adeno-associated virus type 2)) (UniProt P03135)
# [6] = molecular target: SM 10-8 variant AAV capsid (Adeno-associated virus 2 (isolate Srivastava/1982) (AAV-2)) (UniProt P03135)
# [7] = molecular target: wild-type AAV8 capsid (recombinant AAV-GFP vector) (AAV8 (adeno-associated virus type 8))
# [8] = molecular target: wild-type AAV2 capsid (recombinant AAV-GFP vector) (AAV2 (adeno-associated virus type 2)) (UniProt P03135)
# [9] = molecular target: SM 10-2 variant AAV capsid (Adeno-associated virus 2 (isolate Srivastava/1982) (AAV-2)) (UniProt P03135)
substance,measurement,setting,value
"human IVIG (Gamimune N, 10% Human IVIG, Bayer)",Fold Resistance Relative to AAV2,[1],4.39 fold
same,Neutralizing IVIG concentration mg/ml (reduces gene delivery efficiency to 50%),[1],0.066 mg/mL
same,Fold Resistance Relative to AAV2,[2],4.94 fold
same,Neutralizing IVIG concentration mg/ml (reduces gene delivery efficiency to 50%),[2],0.074 mg/mL
same,enhanced resistance to IVIg compared to wild-type AAV2,[3],3.1 fold
same,Fold Resistance Relative to AAV2,[4],1.76 fold
same,Neutralizing IVIG concentration mg/ml (reduces gene delivery efficiency to 50%),[4],0.026 mg/mL
same,enhanced resistance to IVIg compared to wild-type AAV2,[5],1.23 fold
same,Fold Resistance Relative to AAV2,[6],3.41 fold
same,Neutralizing IVIG concentration mg/ml (reduces gene delivery efficiency to 50%),[6],0.051 mg/mL
same,Fold Resistance Relative to AAV2,[7],6.11 fold
same,Neutralizing IVIG concentration mg/ml (reduces gene delivery efficiency to 50%),[7],0.092 mg/mL
same,Fold Resistance Relative to AAV2,[8],1 fold
same,Neutralizing IVIG concentration mg/ml (reduces gene delivery efficiency to 50%),[8],0.015 mg/mL
same,Fold Resistance Relative to AAV2,[9],7.52 fold
same,Neutralizing IVIG concentration mg/ml (reduces gene delivery efficiency to 50%),[9],0.113 mg/mL
